The results in this text go back to the DeepSol protein solubility set.

This series is described as follows: soluble on expression in E. coli; label from the status in PepcDB or PDB records.
Take “MAHHHHHHMATARSYFYYLDAHGNLFPVTDIKGLIDGTNIPAGPIQLRDRAFLDFFYLRLKRSDVEDAAACSNVSDRREEGELLLHSGAKLTPQEVVQHFPYVSICGPERNFLKAEEAPLVFVNYTSGHPKCKQQNGTLAFGESLWEDFQPQALVVTREGKLFHPITKLKNLIATQNGAGDAVPRGLVEAQVVKKLGLELVCDSAKSGYYVLEWKGQKQRIPYFDEL”: the “soluble on expression in E. coli” value was “not soluble”.

For “MAEETQTVETVEEQVVPEAKQPQDEKKYTDADVDAIIDKKFAKWKSEQEAEKSEAKKMAKMNEKEKADYEKQKLLDELQELKNDKTRNELTAVARQMFAESEINVNDDVLGLVVTLDAEQTKANVTTLANAFAKVIADDRKALVRQTTPSTGGGLSKQTNYGANLASKAAQQSTKLF”, the “soluble on expression in E. coli” value is “not soluble”.

Take “MLSARYLHLHEALGLGPMWLKQAAAVLPPKNTPAPSAQARPQTVRAAPIRPSQPHNGQARLETMKALETAAVPTRKPAPETETPLPGLSDGIAPVPAASGITKLAVVSLCPPIEDAVYGQLFHGKAGILLDNILKAVGLDAAYVHKTCWVKTAAVGNPMPSEQAVANALGQIARELDGCRAPAVLFLGQAFVQPERQTMIETLCGSRPFFIIDHPARLLRQPELKARAWQVLKQLKRALRQGGGS”: the “soluble on expression in E. coli” value is recorded as “not soluble”.

With “GAQLLGVHPKGESQRASRGGGQATKMSSAVGPRGPRPPTVPPPMQELPDLSHLTEEERNIIMAVMDRQKEEEEKEEAMLKCVVRDMAKPAACKTPRNAENQPHQPSPRLHQQFESYKEQVRKIGEEARRYQGEHKDDAPTCGICHKTKFADGCGHLCSYCRTKFCARCGGRVSLRSNNEDKVVMWVCNLCRKQQEILTKSGAWFFGSGPQQTSQDGTLSDTATGAGSEVPREKKARLQERSRSQTPLSTAAASSQDAAPPSAPPDRSKGAEPSQQALGPEQKQASSRSRSEPPRERKKTPGLSEQNGKGALKSERKRVPKTSAQPVEGAVEERERKERRESRRLEKGRSQDYPDTPEKRDEGKAADEEKQRKEEDYQTRYRSDPNLARYPVKPPPEEQQMRMHARVSRARHERRHSDVALPRTEAGAALPEGKAGKRAPAAARASPPDSPRAYSAERTAETRAPGAKQLTNHSPPAPRHGPVPAEAPELKAQEPLRKQSRLDPSSAVLMLRNDSLSSDQSESVRPSPPKPHRSKRGGKKRQMSVSSSEEEGVSTPEYTSCEDVELESESVSEKGDLDYYWLDPATWHSRETSPISSHPVTWQPSKEGDRLIGRVILNKRTTMPKDSGALLGLKVVGGKMTDLGRLGAFITKVKKGSLADVVGHLRAGDEVLEWNGKPLPGATNEEVYNIILESKSEPQVEIIVSRPIGDIPRIPESSHPPLESSSSSFESQKMERPSISVISPTSPGALKDAPQVLPGQLSVKLWYDKVGHQLIVNVLQATDLPARVDGRPRNPYVKMYFLPDRSDKSKRRTKTVKKILEPKWNQTFVYSHVHRRDFRERMLEITVWDQPRVQEEESEFLGEILIELETALLDDEPHWYKLQTHDESSLPLPQPSPFMPRRHIHGESSSKKLQRSQRISDSDISDYEVDDGIGVVPPVGYRSSARESKSTTLTVPEQQRTTHHRSRSVSPHRGNDQGKPRSRLPNVPLQRSLDEIHPTRRSRSPTRHHDASRSPVDHRTRDVDSQYLSEQDSELLMLPRAKRGRSAECLHTTR”, the “soluble on expression in E. coli” value is given as “soluble”.

For “MAPVKLYMVEVIDKKEIAANERRSRENDVTGPEITHYYQVTFRLTTDDRKDLVLNIDKSSYQNIEPEMKGRLFMQGSRFVQFETDVPIDEQKLEHHHHHH”, the “soluble on expression in E. coli” value is reported as “soluble”.

For “MINLPAEGHVNPTLSLVKAFTERGDHVHYITTEHFKGRIEDLGATVYTHPDLLKDISIDTETSYGLNSFFHVHVQTSLYILEITKQLCESINFDFVIYDIFGAGELVKEYLQIPGIVSSPIFLIPTEFLETLPFHPNAEIPFQPDEISEQLLYRMEHEFGVKPKNNLQFMHNKGDITLVYTSRYFQPNSDLFGENNIFIGPSISKRKTNVEFPLELLKGKKVIYISMGTLLEGLEPFFNTCIDTFSDFKGVVVMAIGDRNDRSKIKKAPDNFIIASYVLQSEILNEADVFITHGGMNSVHDAIYFNVPFVIIPHDKDQPMIAQRLTELEAAHRLLKEHVNVQSLKEAVTDVLLNEKYKHGIRKLKDSFLQCGGAKEAISVIKSLLNK”, the “soluble on expression in E. coli” value was “not soluble”.

As to “MNAGKEFNYYTYQSDSSQGSLQKAPDENTDYFTHKMNSYLPFDMSTLYANQPTEKIQILQEIYDTERTYVKALTIVDEIFIQQLNLWCPKSKKCFRSMFGEISAICKTHQILLESLQCKPIAEVFTKFVPFLKLYTSYASHYPNSLKIFAKLMSRNDFRKALTKIEEDPRVDGKKLQTYLIMPIQRIPRYIMLIQNLMNYSTEKDDMTNLYKALSGMQGLSDQIQSCMTAYENGERLLQIQLNFGLDGHILEPGRVLLKEGMLYKRELNGSANYQETVVFLFNDILLYGIKRISVMPLCKYEPSAILSLRHCIVQLDDIGGSIFIRCGDVGVDFTAYSLGGVTEWYNEICDAIDNAKKLRDTLRKESFKQKSLIFDKGFWQRNRDKLRNMITADMTGNISRVLTRKKPAPKLEESDFLRGQWTTSTIASNQRKRKVATLEDEEEDVFNMLSSPNLSQRKRKATLQENTPSGVGWTASPRSSSFRKRRASTLRNKNADVTDGNNYLSHLVLNDVTMTQPYTGLNAFVGTPKSRTPTDDDYDSDRDYVWTDDEEFVSDDKKIPIRRVASYDEEDRRPRDFSEVRRSVASEPPRRHLAVDDIRKLSYQQRSLEPFNMVTEDDDEDDIIDIKVKGERPRPWWETESAPPAIKNQKSSIIDSIRNSCAIM”, the “soluble on expression in E. coli” value is recorded as “not soluble”.

“MKPVSGSFSGYHPMATVSEQPVAKPRASESPQSESIEERPACLAPVAGAGQPLPGASSSLSAYLLLRRLDHRPVSQEGINALTPADEAVVEARNALPFGRGNVGVDAQKTDLESSIRTRSVMRLTRDAEAAGHTPMRGVDADMNWNVLVAMSGRIFGAGNCREHARIASFAYGGLAQESGRSSEEKIHLATKAGVDHVWVETDHPDADSSPMVIDPWANGSAILAEDSRFAKDRSAVTRTDTFDLSLAAEAGQIAKATAEEALAHTQGRLQQRLASERPDAVPLESGRYREEVSVLDDTFARRVGQKVNTADPRGMLNVELEAVGVAMSLGGEGVKPLTQEASQIVEKAKKFASPGGMPRDA”: the “soluble on expression in E. coli” value was “not soluble”.

As for “STWTPRNRSEDEEEDENIDLEKNDDDEPNKPTDKGDSTDTEADHKLINPGEIPCDRFKDETHSKDLDPPLTDSELKEGEERTDLLAEQAKPTTSSPSVLQRGSDLITQEKPSEPGHAASTGNSNVTSVIHSPPSAPKPKLWSLAEIATSSDRCKGSSEASQAAGLSQSTVIASAASPTRSSPQCPLPNNTVLSRPIYYTSPFYPGYTNYSTFGHLHSSHGTNTSSTAHFNGLSQTVLNRAEALVRESKVRSQTQVDLCKDSPYELKKGMSNI”, the “soluble on expression in E. coli” value is “not soluble”.

For the sequence “MSQQEISIINLDQLVSMTSVEIAELTGKEHKHVLRDIRNMVEELNGAKTEHCSTLSSELNGSKFGLVGEEVYKDAKGESRTMYRLDRKHTFILVAGYSVHLRAKCYDHIQTLERRVLQLEDQKKRAAIQSANRRGVTWGDYCKTYGLPAQKLMTALLQHRGLFRKNPISNEWSVNPKYSDCFRIIKPSDQKFSAGGYNFRFNAKGLEVFGKPEMVDKMRGILIAFTGTDQQKQEHLLKLAQSGKVEGI”, the “soluble on expression in E. coli” value is reported as “not soluble”.

For “MKGVRSMMGNLVITIGRECGSAGRLIGQKLAADLGVKCYDKELLTLAAKNSGLCEELFKTHDEKPTSSFLYSLVMDTYSLGYNTSAYMDMPINHKIFLAQFDTIKKLAEEESCVIVGRCADYALADYPNTVSVFICGDEEDKIRHLMERHNVDEAKAKDIMIKTDKRRASYYNYYSSKRWGSCKSYDMCISSSAVGYDGAVDIIKEFAKKKQEFLKTKNYK”, the “soluble on expression in E. coli” value was “not soluble”.

On to “MWDTSKDYRLLVAEKSVELFIRTIEGAKFRGQWDKKRSIQLAKEMIPDIQALRYSYIDPEELVDTPQMKDLKEKAKGIIEALGGEDWHHKFLSQASREDREKVEEQVARIKFFLNTILNLDRRLKLGKINDPVIAVDIVVGEVMSVGKHPSADRLLVTNVNIGERAVTVVTNDLTVKEGNRVAVALLPPRNFFGIVSEGMFLGAGEGVLKNVKGEIGGLPKGIPLEALNETRNAVEAFLKG”, for which the “soluble on expression in E. coli” value is recorded as “soluble”.

With “KRGTDLGRPINATFDFFSRLFSKRKNVHMTFFNSSTPLDVNYTPNQQEIDTILDKISRSGYESLTKEEKQKLFKASQK”, the “soluble on expression in E. coli” value was “not soluble”.

Regarding “MCLVQATGGSSTHKLVSAGAEKMIITRPDFVDPPGSKDISITRTARAPKEDKLVIHFCTCRCN”, the “soluble on expression in E. coli” value is recorded as “not soluble”.

As to “MRARIICGFRLVSETGSGSSSSDLTSASGASQWGNSSRSHWLKRWCASCSSAPEISNWQLSPASVSVPISARALLALPCGQCAGYATQFVMKKYYTAFQRGLPDAHVRRLEHHHHHH”, the “soluble on expression in E. coli” value is listed as “not soluble”.

Consider “MGSDKIHHHHHHMAAIPTYKLYGEKTEVSGEFLLHCETLFSRSSLYRFEIDLHRHENFLQILYISEGQGDATLDGKVIAITPPAAIVVPPLFSHGFRFSRSIKGMIITVLPAALPLAVRTSLKQALPLPLHMPLEGEPCAIEISLLMERIADEYAGAKPGRNGLLEAYLATVVLLLARQAAPDASQDLMTLTANDRRMEKLAALIAANFRSHKTAAFYAREMGLSPTHLNRLAKAGTGATLQQLIARKQLEIAQQELIFSQTSIQAIALNHGFTDPAYFTRFFTRETGLTPRAWRLAERQKLQNLSDRAQAEISAATASE”, for which the “soluble on expression in E. coli” value is reported as “not soluble”.

Consider “MQELINEYRGALQEVNEVKANLQTKIDAKKRPPQAAGQKRTIQEVPEKAIMSKLNSIIRSLEYSIEWMELGHEPAPRRAIHRRSGLQREVCVTDIETMRQWFVYEHGIAYDFEDNEPKISEWDKIRMEDAMSTMSTQEKKVFLLKHEKNLSYSQISDEMEISVRSVRSYLHRGEEKIQNQIDGSLFCMAI”, for which the “soluble on expression in E. coli” value was “not soluble”.

In the case of “SNAHKGTLYVVATPLGNLDDMTFRAVNTLRNAGAIACEDTRRTSILLKHFGIEGKRLVSYHSFNEERAVRQVIELLEEGSDVALVTDAGTPAISDPGYTMASAAHAAGLPVVPVPGA”, the “soluble on expression in E. coli” value is “soluble”.

Take “MSLDKNRTMLLIVDINKGFAKEGALYSDRIEKLISPISNLANYALNSGIRVKAFTDYHTEDSIELKAYPKHCMKDTDEWELVDELNLEGIEVIKKNSTNGFLEENFILNKEEIDNVIIVGDCTDICIYQLAISLRAEFNRVNKDGEIYVPKKLVDTFDMPMHKANFMNYVFLNSMLDNGVKVIEDIILDEGHHHHHH”: the “soluble on expression in E. coli” value is on record as “not soluble”.

For the sequence “MSKLLLVGEPLIRVSPNQFQPLTNACEAQLFFGGSEVNIARTLGGFGLEARLFTALPDNPVGHAFHQFLKQSGVDMSLTAWQGHRVGLYYLENGFGCRASQVYYDRCGSSFSALDKDSLDLAAIFEGISHFHFSGISLALGKKTQDLIEVLVREAKKRDICISFDLNFRSSMIAVADAKRLFSHFAQYADIIFGMEPLLLDSDDFDMFDRKKADTTTIRERLAGLYQRYQLQAIYHTERSNDAQGSNHFKAYAYDRQFYESCEVTTPVLQRVGSGDAFVAGLLYQLLEGNEKQRNLDFAVATASLKCTVAEDQLYHSVQQVEAVLANQRDIQR”, the “soluble on expression in E. coli” value is recorded as “not soluble”.

With “MDALNNKLYFIDSTKHKIFVEQIINGMHDWVRVIDINDNIIFVNESMAKALGKNVIGEKCYKAIGKSEPCENCTSRKAVFEGTIQAKEEIIGDRIFSVKSSPIRDENGQITAVVEVLRDITEMKKMQKKILEHNQKLQSELNMARRLQCSLLPKELPQDKIDFSYVYRPCEAIGGDFLDIFKIDDEHIGIYIADVSGHGVPASMLTVFLRSSINKKTLSPAEALNQLYKEFNRDYYDQELYITIFYAIIDTKNKNIIYSNAGHNASPVLFNHESHRFDILRIPGVPISDWVDNPEYTEKSISIEKGDRLFMYTDGIVELRNNKGEQFGEERLLNILLGEKMPPAMTLDRIIEAAMEFANIKNFNKIIDDITMALLEIL”, the “soluble on expression in E. coli” value is “soluble”.
